Reference: the Immune Epitope Database (IEDB)

What was measured:
HLA-B*15:09 = assay: IEDB peptide-MHC binding, purified MHC/competitive/fluorescence; filed as Kd, often an IC50 or EC50 that approximates it; ≥ and ≤ were set here for values at or beyond the usual limits of such assays
HLA-B*39:01 = assay: as above
HLA-B*48:01 = assay: IEDB peptide-MHC binding, purified MHC/direct/fluorescence; filed as Kd, often an IC50 or EC50 that approximates it; ≥ and ≤ were set here for values at or beyond the usual limits of such assays
HLA-A*01:01 = assay: as above
HLA-B*15:01 [1] = assay: as above
HLA-A*02:01 [2] = assay: as above; details: source organism: Mycobacterium tuberculosis
HLA-B*27:05 [3] = assay: as above; details: source organism: Mycobacterium tuberculosis
HLA-B*58:01 = assay: as above
HLA-A*03:01 = assay: as above; details: source organism: Mycobacterium tuberculosis
HLA-B*18:01 [4] = assay: as above; details: source organism: Mycobacterium tuberculosis
HLA-A*31:01 = assay: as above
HLA-B*51:01 = assay: as above; details: source organism: Mycobacterium tuberculosis
HLA-A*69:01 = assay: as above
HLA-A*26:01 [5] = assay: as above; details: source organism: Mycobacterium tuberculosis str. Haarlem
HLA-B*15:17 [6] = assay: as above; details: source organism: Mycobacterium tuberculosis
HLA-B*40:01 = assay: as above; details: source organism: Mycobacterium tuberculosis
HLA-B*57:01 = assay: as above
HLA-B*46:01 = assay: as above
HLA-B*08:01 = assay: as above
HLA-B*08:02 = assay: as above
HLA-A*11:01 = assay: as above
HLA-A*02:01 [7] = assay: IEDB peptide-MHC binding, purified MHC/competitive/fluorescence; filed as Kd, often an IC50 or EC50 that approximates it; ≥ and ≤ were set here for values at or beyond the usual limits of such assays; details: source organism: Variola virus
HLA-B*27:05 [8] = assay: as above; details: source organism: Variola virus
HLA-A*26:01 [9] = assay: as above; details: source organism: Variola virus
HLA-A*26:02 [10] = assay: as above
HLA-B*15:17 [11] = assay: as above; details: source organism: Variola virus
HLA-B*15:03 = assay: IEDB peptide-MHC binding, purified MHC/competitive/radioactivity; filed as Kd, often an IC50 or EC50 that approximates it; ≥ and ≤ were set here for values at or beyond the usual limits of such assays; details: source organism: Vaccinia virus WR
HLA-A*68:02 = assay: IEDB peptide-MHC binding, purified MHC/direct/fluorescence; filed as Kd, often an IC50 or EC50 that approximates it; ≥ and ≤ were set here for values at or beyond the usual limits of such assays
HLA-B*07:02 = assay: as above
HLA-C*07:02 = assay: as above; details: source organism: Variola virus
HLA-B*14:02 = assay: as above; details: source organism: Homo sapiens
HLA-A*80:01 = assay: as above
HLA-A*26:02 [12] = assay: as above; details: source organism: Yellow fever virus
HLA-B*15:01 [13] = assay: IEDB peptide-MHC binding, purified MHC/competitive/fluorescence; filed as Kd, often an IC50 or EC50 that approximates it; ≥ and ≤ were set here for values at or beyond the usual limits of such assays; details: source organism: Mycobacterium tuberculosis variant bovis BCG str. Pasteur 1173P2
HLA-B*18:01 [14] = assay: as above; details: source organism: Mycobacterium tuberculosis variant bovis BCG str. Pasteur 1173P2
HLA-A*02:06 = assay: as above; details: source organism: Mycobacterium tuberculosis variant bovis BCG str. Pasteur 1173P2
HLA-A*26:03 = assay: as above; details: source organism: Mycobacterium tuberculosis variant bovis BCG str. Pasteur 1173P2
HLA-B*08:03 = assay: IEDB peptide-MHC binding, purified MHC/direct/fluorescence; filed as Kd, often an IC50 or EC50 that approximates it; ≥ and ≤ were set here for values at or beyond the usual limits of such assays; details: source organism: Mycobacterium tuberculosis str. Haarlem
[15] = source organism: Mycobacterium tuberculosis C
[16] = source organism: Mycobacterium tuberculosis
[17] = source organism: Mycobacterium tuberculosis str. Haarlem
[18] = source organism: Camelpox virus M-96
[19] = source organism: Camelpox virus CMS

RPAPATGAL was tested, and the Kd (HLA-B*15:09; [15]) was 0.0786 µM, the Kd (HLA-B*39:01; [15]) was 0.0042 µM and the Kd (HLA-B*48:01; [16]) was no less than 20 µM. The Kd (HLA-A*01:01; [16]) was no less than 20 µM, the Kd (HLA-B*15:01 [1]; [16]) was no less than 20 µM and the Kd (HLA-A*02:01 [2]) was no less than 20 µM. It also gave a Kd (HLA-B*27:05 [3]) of no less than 20 µM, a Kd (HLA-B*58:01; [16]) of no less than 20 µM and a Kd (HLA-A*03:01) of no less than 20 µM. It also gave a Kd (HLA-B*18:01 [4]) of no less than 20 µM, a Kd (HLA-A*31:01; [16]) of no less than 20 µM and a Kd (HLA-B*51:01) of no less than 20 µM. For the same sequence, the Kd (HLA-A*69:01; [16]) was 0.739 µM, the Kd (HLA-A*26:01 [5]) was no less than 20 µM and the Kd (HLA-B*15:17 [6]) was no less than 20 µM. The Kd (HLA-B*40:01) was no less than 20 µM, the Kd (HLA-B*57:01; [16]) was no less than 20 µM and the Kd (HLA-B*46:01; [16]) was no less than 20 µM. It also gave a Kd (HLA-B*08:01; [17]) of no less than 20 µM, a Kd (HLA-B*08:02; [17]) of no less than 20 µM and a Kd (HLA-A*11:01; [16]) of no less than 20 µM.

SQIETGTPF gave a Kd (HLA-A*02:01 [7]) of no less than 20 µM, a Kd (HLA-B*27:05 [8]) of no less than 20 µM and a Kd (HLA-B*15:09; source organism: Variola virus) of 0.0673 µM. The Kd (HLA-A*26:01 [9]) was 1.79 µM, the Kd (HLA-A*26:02 [10]; source organism: Variola virus) was 0.0008 µM and the Kd (HLA-B*15:17 [11]) was no less than 20 µM. It also gave a Kd (HLA-B*39:01; source organism: Variola virus) of 0.0146 µM, a Kd (HLA-B*15:03) of 0.00133 µM and a Kd (HLA-B*48:01; [18]) of 1.65 µM. The Kd (HLA-A*01:01; [18]) was no less than 20 µM, the Kd (HLA-B*15:01 [1]; [18]) was 0.014 µM and the Kd (HLA-B*58:01; [18]) was no less than 20 µM. For the same sequence, the Kd (HLA-A*68:02; [18]) was no less than 20 µM, the Kd (HLA-A*31:01; [18]) was no less than 20 µM and the Kd (HLA-B*07:02; [18]) was no less than 20 µM. The Kd (HLA-A*69:01; [18]) was no less than 20 µM, the Kd (HLA-B*57:01; [18]) was no less than 20 µM and the Kd (HLA-B*46:01; [18]) was 3.06 µM. For the same sequence, the Kd (HLA-C*07:02) was no less than 20 µM, the Kd (HLA-B*08:01; source organism: Variola virus) was no less than 20 µM and the Kd (HLA-B*08:02; source organism: Variola virus) was no less than 20 µM. The Kd (HLA-A*11:01; [18]) was no less than 20 µM.

Work on LQRIHAEI yielded a Kd (HLA-B*14:02) of 0.133 µM.

EVDQTKIQY showed a Kd (HLA-A*80:01; source organism: Yellow fever virus) of no less than 20 µM and a Kd (HLA-A*26:02 [12]) of 1.61 µM.

With ITDFNIDTY the Kd (HLA-A*01:01; [19]) was no more than 0.001 µM and the Kd (HLA-A*80:01; [19]) was 0.307 µM.

Sequence KVMVICYAY has a Kd (HLA-B*15:01 [13]) of no less than 20 µM, a Kd (HLA-B*18:01 [14]) of 3.29 µM and a Kd (HLA-A*02:06) of no less than 20 µM. The Kd (HLA-A*26:02 [10]; source organism: Mycobacterium tuberculosis variant bovis BCG str. Pasteur 1173P2) was no less than 20 µM, the Kd (HLA-A*26:03) was no less than 20 µM and the Kd (HLA-B*48:01; [16]) was no less than 20 µM. The Kd (HLA-A*01:01; [16]) was 11.8 µM, the Kd (HLA-A*02:01 [2]) was no less than 20 µM and the Kd (HLA-B*27:05 [3]) was no less than 20 µM. It also gave a Kd (HLA-B*58:01; [16]) of 0.705 µM, a Kd (HLA-A*68:02; [16]) of no less than 20 µM and a Kd (HLA-A*31:01; [16]) of 4.16 µM. It also gave a Kd (HLA-B*07:02; [16]) of no less than 20 µM, a Kd (HLA-A*69:01; [16]) of no less than 20 µM and a Kd (HLA-B*08:03) of no less than 20 µM. The Kd (HLA-B*15:17 [6]) was 6.9 µM, the Kd (HLA-B*40:01) was no less than 20 µM and the Kd (HLA-B*57:01; [16]) was no less than 20 µM. It also gave a Kd (HLA-B*46:01; [16]) of no less than 20 µM, a Kd (HLA-B*08:01; [17]) of no less than 20 µM and a Kd (HLA-B*08:02; [17]) of no less than 20 µM. It also gave a Kd (HLA-A*11:01; [16]) of 0.492 µM.
